Test results from patent publication US20160355553A1 (Janssen / Centocor, published 2016).

Legend:
[1] = target: H3 Mini-HA cluster 1 (influenza A virus H3N2, UniProt O11283 17-566); assay: FACS on HEK293F [D00010 FIG. 8B]
[2] = target: H3 Mini-HA cluster 1+2 (influenza A virus H3N2, UniProt O11283 17-566); assay: FACS on HEK293F [D00010 FIG. 8B]
[3] = target: H3 Mini-HA cluster 1+3 (influenza A virus H3N2, UniProt O11283 17-566); assay: FACS on HEK293F [D00010 FIG. 8B]
[4] = target: H3 Mini-HA cluster 1+4 (influenza A virus H3N2, UniProt O11283 17-566); assay: FACS on HEK293F [D00010 FIG. 8B]
[5] = target: H3 Mini-HA cluster 1+6 (influenza A virus H3N2, UniProt O11283 17-566); assay: FACS on HEK293F [D00010 FIG. 8B]
[6] = target: H3 Mini-HA cluster 1+7 (influenza A virus H3N2, UniProt O11283 17-566); assay: FACS on HEK293F [D00010 FIG. 8B]
[7] = target: H3 Mini-HA cluster 1+8 (influenza A virus H3N2, UniProt O11283 17-566); assay: FACS on HEK293F [D00010 FIG. 8B]
[8] = target: H3-mini2 (influenza A virus H3N2, UniProt O11283 17-566); assay: FACS on HEK293F [D00012 FIG. 9B]
[9] = target: H3-mini2-cl9+10 (influenza A virus H3N2, UniProt O11283 17-566); assay: FACS on HEK293F [D00012 FIG. 9B]
[10] = target: H3-mini2-cl9+11 (influenza A virus H3N2, UniProt O11283 17-566); assay: FACS on HEK293F [D00012 FIG. 9B]
[11] = target: H3-mini2-cl9+10+11 (influenza A virus H3N2, UniProt O11283 17-566); assay: FACS on HEK293F [D00012 FIG. 9B]
[12] = target: H3-mini2-cl9+10+11-tri (influenza A virus H3N2); assay: FACS on HEK293F [D00012 FIG. 9B]
[13] = target: H3mini2-cl9+10+11-GCN4 (influenza A virus H3N2); assay: FACS on HEK293F [D00012 FIG. 9B]
[14] = target: H3-mini2-cl9+10+11+12 (influenza A virus H3N2, UniProt O11283 17-566); assay: FACS on HEK293F [D00012 FIG. 9B]
[15] = target: H3-mini2-cl9+10+12 (influenza A virus H3N2, UniProt O11283 17-566); assay: FACS on HEK293F [D00012 FIG. 9B]
[16] = target: H3-mini2-cl9+10+11+12-GCN4 (influenza A virus H3N2, UniProt O11283 17-566); assay: FACS on HEK293F [D00012 FIG. 9B]
[17] = target: H3-mini2-cl9+10+11+12-tri (influenza A virus H3N2, UniProt O11283 17-566); assay: FACS on HEK293F [D00012 FIG. 9B]
[18] = target: H3-mini2-cl9+13 (influenza A virus H3N2, UniProt O11283 17-566); assay: FACS on HEK293F [D00012 FIG. 9B]
[19] = target: H3-mini2-cl9+10+11+13 (influenza A virus H3N2, UniProt O11283 17-566); assay: FACS on HEK293F [D00012 FIG. 9B]
[20] = target: H3-mini2-cl9+10+11+13-GCN4 (influenza A virus H3N2); assay: FACS on HEK293F [D00012 FIG. 9B]
[21] = target: H3-mini2-cl9+10+11+13-tri (influenza A virus H3N2); assay: FACS on HEK293F [D00012 FIG. 9B]
[22] = target: H3-mini3-cl9+10+11+12+14 (influenza A virus H3N2, UniProt O11283 17-566); assay: FACS on HEK293F [D00012 FIG. 9B]
[23] = target: H3-mini4-cl9+10+11+12+14 (influenza A virus H3N2, UniProt O11283 17-566); assay: FACS on HEK293F [D00012 FIG. 9B]
[24] = target: mini1 cluster11 (A/Brisbane/59/2007) (influenza A virus H1N1, UniProt A8C8J4 18-565); assay: FACS on HEK293F
[25] = target: mini2 cluster11 (A/Brisbane/59/2007) (influenza A virus H1N1, UniProt A8C8J4 18-565); assay: FACS on HEK293F
[26] = target: mini1 cluster11+5 (A/Brisbane/59/2007) (influenza A virus H1N1, UniProt A8C8J4 18-565); assay: FACS on HEK293F
[27] = target: mini2 cluster11+5 (A/Brisbane/59/2007) (influenza A virus H1N1, UniProt A8C8J4 18-565); assay: FACS on HEK293F

Measured: binding result

B1: CR9114 (antibody, V domains shown)
VH: QVQLVQSGAEVKKPGSSVKVSCKSSGGTSNNYAISWVRQAPGQGLDWMGGISPIFGSTAYAQKFQGRVTISADIFSNTAYMELNSLTSEDTAVYFCARHGNYYYYSGMDVWGQGTTVTVSS
VL: SYVLTQPPAVSGTPGQRVTISCSGSDSNIGRRSVNWYQQFPGTAPKLLIYSNDQRPSVVPDRFSGSKSGTSASLAISGLQSEDEAEYYCAAWDDSLKGAVFGGGTQLTVL
not listed: [24] | [25] | [26] | [27]
no binding (tested: 5 ug/ml): all other assays above

B2: CR8057 (antibody, V domains shown)
VH: EVQLVESGGGLVQPGGSLRLSCAASGFTDSVIFMSWVRQAPGKGLECVSIIYIDDSTYYADSVKGRFTISRHNSMGTVFLEMNSLRPDDTAVYYCATESGDFGDQTGPYHYYAMDV
VL: QSALTQPASVSGSPGQSITISCTGSSGDIGGYNAVSWYQHHPGKAPKLMIYEVTSRPSGVSDRFSASRSGDTASLTVSGLQAEDEAHYYCCSFADSNILI
no binding (tested: 5 ug/ml): all assays above
